Where two headings read alike, the source gives them in different places.
Tests used:
HLA-A*0201 [1] = biological target: HLA-A*0201 (human); test: competition with 125I-labelled probe peptide for purified HLA-A*0201
HLA-A*0202 = HLA-A*0202 (human); test: competition with 125I probe peptide, purified HLA
HLA-A*0203 = HLA-A*0203 (human); test: competition with 125I probe peptide, purified HLA
HLA-B*5301 = HLA-B*5301 (human); test: competition vs 125I probe peptide, purified HLA
HLA-B*5401 = HLA-B*5401 (human); test: competition vs 125I probe peptide, purified HLA
HLA-B*0702 = HLA-B*0702 (human); test: competition vs 125I probe peptide, purified HLA
HLA-B*3501 = HLA-B*3501 (human); test: competition vs 125I probe peptide, purified HLA
HLA-B*5101 = HLA-B*5101 (human); test: competition vs 125I probe peptide, purified HLA
HLA-A*0206 = HLA-A*0206 (human); test: competition with 125I probe peptide, purified HLA
HLA-A*6802 = HLA-A*6802 (human); test: competition with 125I probe peptide, purified HLA
HLA-A*0201 [2] = biological target: HLA-A*0201 (human); test: competition with 125I probe peptide, purified HLA
HLA-A*0201 [3] = biological target: HLA-A*0201 (human); test: competition with 125I probe peptide, purified HLA, gel filtration
HLA-DRB1*0101 = HLA-DRB1*0101 (human); test: inhibition of 125I-probe binding to purified HLA-DR
HLA-DRB1*0301 [4] = biological target: HLA-DRB1*0301 (human); test: inhibition of 125I probe peptide binding to purified HLA
HLA-DRB1*0301 [5] = biological target: HLA-DRB1*0301 (human); test: as above; remark: listed apart in the source

## GLEARGEAL [MAGE2 peptide, position 15, 9 amino acids]
HLA-A*0201 [1]
  relative binding ratio: 0.0001 ratio

## KIWEELSML [MAGE2.220 9-mer KIWEELSML]
HLA-A*0202
  IC50: 642 nM
HLA-A*0203
  IC50: 175 nM

## FPQGASSI [MAGE3.64.F1 FPQGASSI]
HLA-B*5301
  IC50: 3000 nM
HLA-B*5401
  IC50: 400 nM

## FPIGHLYIFA [MAGE3.170.F1 FPIGHLYIFA]
HLA-B*0702
  IC50: 39 nM
HLA-B*3501
  IC50: 51 nM
HLA-B*5101
  IC50: 56 nM
HLA-B*5301
  IC50: 179 nM
HLA-B*5401
  IC50: 0.4 nM

## FPIGHLYIFI [MAGE3.170.F1I10 FPIGHLYIFI]
HLA-B*3501
  IC50: 139 nM
HLA-B*5301
  IC50: 8.5 nM

## FPLWSQSI [MAGE3.77.F1 FPLWSQSI]
HLA-B*0702
  IC50: 122 nM
HLA-B*3501
  IC50: 1010 nM
HLA-B*5301
  IC50: 245 nM

## FPRALIETSYI [MAGE2.274.F1I11 FPRALIETSYI]
HLA-B*0702
  IC50: 7.4 nM
HLA-B*3501
  IC50: 3600 nM
HLA-B*5101
  IC50: 70 nM
HLA-B*5301
  IC50: 465 nM
HLA-B*5401
  IC50: 127 nM

## FPRALIETSYV [MAGE2.274.F1 FPRALIETSYV]
HLA-B*3501
  IC50: 4500 nM
HLA-B*5101
  IC50: 128 nM
HLA-B*5301
  IC50: 7750 nM

## FPRALVETSYV [MAGE3.274.F1 FPRALVETSYV]
HLA-B*3501
  IC50: 4240 nM

## FPRALVETSYI [MAGE3.274.F1I11 FPRALVETSYI]
HLA-B*3501
  IC50: 5540 nM
HLA-B*5301
  IC50: 620 nM
HLA-B*5401
  IC50: 59 nM

## FPHISYPPL [MAGE2.296.F1 FPHISYPPL]
HLA-B*5101
  IC50: 177 nM

## FPHISYPPI [MAGE3.296.F1I9 FPHISYPPI]
HLA-B*3501
  IC50: 360 nM
HLA-B*5301
  IC50: 233 nM
HLA-B*5401
  IC50: 1.4 nM

## FPKAGLLIIV [MAGE3.196.F1 FPKAGLLIIV]
HLA-B*0702
  IC50: 220 nM
HLA-B*3501
  IC50: 878 nM
HLA-B*5101
  IC50: 190 nM
HLA-B*5301
  IC50: 4650 nM
HLA-B*5401
  IC50: 1.1 nM

## FPKAGLLIII [MAGE3.196.F1I10 FPKAGLLIII]
HLA-B*5101
  IC50: 65 nM
HLA-B*5301
  IC50: 846 nM

## ALIETSYVKV [MAGE2.277 10-mer ALIETSYVKV]
HLA-A*0202
  IC50: 729 nM
HLA-A*0206
  IC50: 1950 nM
HLA-A*6802
  IC50: 3080 nM

## KLAELVHFL [MAGE3.112L2 KLAELVHFL]
HLA-A*0203
  IC50: 5.9 nM
HLA-A*6802
  IC50: 400 nM

## KLAELVHFV [MAGE3.112L2V9 KLAELVHFV]
HLA-A*6802
  IC50: 73 nM

## KMAELVHFV [MAGE3.112M2V9 KMAELVHFV]
HLA-A*0203
  IC50: 46 nM
HLA-A*0206
  IC50: 39 nM

## FPIGHLYII [MAGE3.170.F1I9 FPIGHLYII]
HLA-B*5101
  IC50: 5 nM
HLA-B*5401
  IC50: 0.6 nM

## HLYIFATCLGL [MAGE3.174 11-mer HLYIFATCLGL]
HLA-A*0201 [2]
  IC50: 56 nM
HLA-A*0202
  IC50: 741 nM

## FPTTMNYPLW [MAGE3.71.F1 FPTTMNYPLW]
HLA-B*0702
  IC50: 220 nM

## FPTTMNYPL [MAGE3.71.F1 FPTTMNYPL]
HLA-B*0702
  IC50: 6.4 nM
HLA-B*3501
  IC50: 4.5 nM
HLA-B*5101
  IC50: 423 nM
HLA-B*5301
  IC50: 39 nM
HLA-B*5401
  IC50: 3 nM

## FPTTMNYPI [MAGE3.71.F1I9 FPTTMNYPI]
HLA-B*0702
  IC50: 59 nM
HLA-B*5301
  IC50: 8.5 nM
HLA-B*5401
  IC50: 1.5 nM

## GLEARGEAL [MAGE3 peptide, position 15, 9 amino acids]
HLA-A*0201 [3]
  relative binding ratio: 0.0001 ratio (IC50 standard / IC50 test peptide)

## LLIIVLAIIAIEGDC [MAGE2.201 (15-mer)]
HLA-DRB1*0101
  IC50: ≤ 1000 nM

## FPKAGLLI [MAGE3.196.F1I8 FPKAGLLI]
HLA-B*5301
  IC50: 775 nM
HLA-B*5401
  IC50: 46 nM

## FPKTGLLI [MAGE2.196.F1I8 FPKTGLLI]
HLA-B*0702
  IC50: 134 nM
HLA-B*5301
  IC50: 3320 nM

## LIIVLAIIAIEGDCA [MAGE2.202 (15-mer)]
HLA-DRB1*0101
  IC50: ≤ 1000 nM

## IIAIEGDCAPEEKIW
HLA-DRB1*0301 [4]
  relative binding ratio: 0.066 IC50 standard/IC50 peptide
HLA-DRB1*0301 [5]
  relative binding ratio: 0.066 IC50 standard/IC50 peptide

Source: patent US20040053822A1 (published 2004)
